Results on 8 substances are retold here after article PMC5823459.

Assay [1] concerns the target mouse-human chimeric mAb 101F. Description: ELISA.
Assay [2] addresses D25. The assay is described as follows: ELISA. On the technique in general: An ELISA detects its analyte on a solid surface through an enzyme-linked reagent.
Assay [3] deals with D25. The settings on record: cells fixed with 4% (vol/vol) paraformaldehyde 16 h after transfection; read off a plot.
A further assay concerns the target palivizumab. The settings on record: cells fixed with 4% (vol/vol) paraformaldehyde 16 h after transfection; read off a plot.

The substance post-fusion RSV A2 F protein G430A displayed an EC50 in assay [1] of 0.035 µg/mL.

post-fusion RSV A2 F protein I432A displayed an EC50 in assay [1] of 0.066 µg/mL.

In the case of post-fusion RSV A2 F protein R429A, the EC50 in assay [1] stood at 0.026 µg/mL.

pre-fusion RSV A2 F SC-TM protein G430A registered an EC50 in assay [1] of 0.97 µg/mL.

For pre-fusion RSV A2 F SC-TM protein R429A, the EC50 with D25 [2] is 0.023 µg/mL.

Regarding “wild-type RSV F (RSV-A2) expressed on HEK-293T cells G430A”, the percent of parent in the assay with D25 [3] is 310 % WT; in the assay with palivizumab, 400 % WT.

On to “wild-type RSV F (RSV-A2) expressed on HEK-293T cells I432A”, for which the percent of parent with D25 [3] turned out to be 240 % WT; with palivizumab, 260 % WT.

On to “wild-type RSV F (RSV-A2) expressed on HEK-293T cells R429A”, for which the percent of parent turned out to be 390 % WT with D25 [3] and 310 % WT in the assay with palivizumab.

The EC50 is the concentration that produces a half-maximal response. Read a high EC50 as a less potent agent.
